Test results reported in paper PMC6995573.
Read-outs that look alike come from different tables or passages of the source.

Tests used:
[1] = target: Human ornithine decarboxylase (human) (UniProt P11926)
[2] = target: Human ornithine decarboxylase (human) (UniProt P11926); remark: listed apart in the source
[3] = target: Human ornithine decarboxylase (human) (UniProt P11926); assay: AUC; sedimentation velocity, 20 °C, 30 mM Tris-HCl pH 7.4, 25 mM NaCl; ODC fixed at 0.3 mg/mL, AZ 0.02-0.19 mg/mL (AZ/ODC molar ratio 0.25 to 3); all data sets fitted to the AB hetero-association model in SEDPHAT

Human ornithine decarboxylase (human), sequence (P11926 2-421): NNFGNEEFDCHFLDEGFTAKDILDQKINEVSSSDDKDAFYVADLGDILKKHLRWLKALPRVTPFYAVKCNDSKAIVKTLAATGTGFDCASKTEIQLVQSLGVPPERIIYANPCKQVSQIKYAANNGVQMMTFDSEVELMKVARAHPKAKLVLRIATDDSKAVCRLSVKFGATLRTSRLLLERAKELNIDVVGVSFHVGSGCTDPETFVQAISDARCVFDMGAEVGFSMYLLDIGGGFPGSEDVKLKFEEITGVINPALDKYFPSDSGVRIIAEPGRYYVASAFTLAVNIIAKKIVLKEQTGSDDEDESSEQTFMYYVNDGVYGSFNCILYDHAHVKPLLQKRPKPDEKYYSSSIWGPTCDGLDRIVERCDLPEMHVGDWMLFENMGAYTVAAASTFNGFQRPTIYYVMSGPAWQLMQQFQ

Substance | IC50 of inhibition of ODC enzyme activity by AZ [1] [µM] | IC50 of inhibition of ODC enzyme activity by AZ [2] [µM] | Kd [3] [µM]
AZ3_A98D (natural protein) | 0.67 |  | 
AZ3_D112K (natural protein) | 0.55 |  | 
AZ3_D136G (natural protein) | 0.72 |  | 
AZ3_D149P (natural protein) | 2.05 |  | 
AZ3_D179N (natural protein) | 0.45 |  | 
AZ3_G99D (natural protein) | 0.78 |  | 
AZ3_H129N (natural protein) | 0.67 |  | 
AZ3_K166Q (natural protein) | 0.42 |  | 
AZ3_N100R (natural protein) | 0.66 |  | 
AZ3_N168R (natural protein) | 1.38 |  | 
AZ3_N175C (natural protein) | 0.65 |  | 
AZ3_N178K (natural protein) | 0.67 |  | 
AZ3_Q150E (natural protein) | 0.48 |  | 
AZ3_Q177H (natural protein) | 1.34 |  | 
AZ3_R137G (natural protein) | 1.23 |  | 
AZ3_R138S (natural protein) | 0.81 |  | 
AZ3_S124D (natural protein) | 0.5 |  | 
AZ3_S124D/Q150E/K166Q/D179N (natural protein) |  | 0.25 | 0.5
AZ3_S124D/Q150E/K166Q/S171H/D179N (natural protein) |  | 0.29 | 0.14
AZ3_S127R (natural protein) | 1.02 |  | 
AZ3_S171H (natural protein) | 0.43 |  | 
AZ3_T106E (natural protein) | 1.21 |  | 
AZ3_T126K (natural protein) | 0.7 |  | 
AZ3_Y145G (natural protein) | 0.98 |  | 
